Test results reported in publication PMC8937215.

Molecular target: CCR6-NES-eLOV-TEVcs-FLAG-Gal4-V5 receiver construct, expressed in HEK293T cells

For “CCL20 sender construct (CCL20-18 aa linker-3xHA-pre-mGRASP), expressed in HEK293T cells (ligand)”, which TRACC UAS-mCherry reporter by confocal imaging, HEK293T in trans: percent of receiver cells in contact with sender cells with reporter expression above background is on record?
Its TRACC UAS-mCherry reporter by confocal imaging, HEK293T in trans: percent of receiver cells in contact with sender cells with reporter expression above background is 80.2%.
